The values below come from patent US6451759 (University of California, dated 2002).

The assay addresses T1, Fas on Jurkat T cells (human, UniProt P25445 26-335).
T1 sequence (looked up): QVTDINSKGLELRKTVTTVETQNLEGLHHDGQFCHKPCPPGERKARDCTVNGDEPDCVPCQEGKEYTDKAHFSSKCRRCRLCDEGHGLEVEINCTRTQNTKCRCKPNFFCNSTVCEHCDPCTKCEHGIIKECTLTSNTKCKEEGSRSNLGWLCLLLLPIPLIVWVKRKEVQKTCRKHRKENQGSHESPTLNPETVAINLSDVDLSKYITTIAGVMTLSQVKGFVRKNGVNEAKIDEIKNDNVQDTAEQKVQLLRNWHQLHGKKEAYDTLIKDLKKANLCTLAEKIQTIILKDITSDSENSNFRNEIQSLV
Kind of assay: cell-based or functional assay.

B1: deletion mutant 2 of human FasL (ligand)
chain: SQMHTASSLEKQIGHPSPPPEKKELRKVAHLTGKSN
For the molecule B1, the “percent specific 51Cr release from Jurkat target cells (cytotoxicity assay, transfected COS-7 effector cells)” value was around 2 fold over wild-type FasL.
